From US20260242419A1, “A CYCLIC PEPTIDE FOR TRAPPING INTERLEUKIN-1 BETA” (Merck Sharp & Dohme LLC, priority 2023, published 2026)
Starred links: 1 amine or outer side, 2 acyl side, 3 side chain; linkers in the order of their positions; H or OH if unused. Non-standard residues stand in square brackets, D forms with d. dProc3CH2Pyrim = (2R,3S)-3-(pyrimidin-5-ylmethyl)pyrrolidine-2-carboxylic acid, O=C([C@H]1[C@@H](Cc2cncnc2)CCN1[*:1])[*:2]; TyrEtNAc = (2S)-3-[4-(2-acetamidoethoxy)phenyl]-2-amino-propanoic acid, CC(=O)NCCOc1ccc(C[C@H](N[*:1])C(=O)[*:2])cc1; dProc3Bn = (2R,3S)-3-benzylpyrrolidine-2-carboxylic acid, O=C([C@H]1[C@@H](Cc2ccccc2)CCN1[*:1])[*:2]; Phe(4-(trans-4-COOH-cHex)) = N[C@@H](Cc1ccc([C@H]2CC[C@H](C(=O)O)CC2)cc1)C(=O)O; Phe(4-(cis-4-COOH-cHex)) = N[C@@H](Cc1ccc([C@H]2CC[C@@H](C(=O)O)CC2)cc1)C(=O)O; Trp(βS-Me,4-F) = C[C@@H](c1c[nH]c2cccc(F)c12)[C@H](N)C(=O)O; 3Aminoazetidine3carboxyl = O=C(C1(N[*:1])CN([*:3])C1)[*:2]; Bip(4'-COOH) = N[C@@H](Cc1ccc(-c2ccc(C(=O)O)cc2)cc1)C(=O)O; dPro(4R-Bzl(4-F)) = O=C(O)[C@H]1C[C@@H](Cc2ccc(F)cc2)CN1; Ala(pyrimidin-5-yl) = N[C@@H](Cc1cncnc1)C(=O)O; Phe(4-COOH) = N[C@@H](Cc1ccc(C(=O)O)cc1)C(=O)O; Pro(cis-4-F) = O=C(O)[C@@H]1C[C@H](F)CN1; 2Pal = N[C@@H](Cc1ccccn1)C(=O)O; 3Pal = N[C@@H](Cc1cccnc1)C(=O)O; 4Pal = N[C@@H](Cc1ccncc1)C(=O)O; αMeK = C[C@](N)(CCCCN)C(=O)O; Dab = NCC[C@H](N)C(=O)O; Dap = NC[C@H](N)C(=O)O; Aib = CC(C)(N)C(=O)O

B1: SEQ ID NO: 66 (peptide)
peptide: cyclo([Bip(4'-COOH)][4Pal][Phe(4-COOH)]G[Pro(cis-4-F)][Trp(βS-Me,4-F)][αMeK]EW[Aib][Ala(pyrimidin-5-yl)]Q[Dab]G[dPro(4R-Bzl(4-F))])
SMILES: C[C@@H](c1c[nH]c2cccc(F)c12)[C@@H]1NC(=O)[C@@H]2C[C@H](F)CN2C(=O)CNC(=O)[C@H](Cc2ccc(C(=O)O)cc2)NC(=O)[C@H](Cc2ccncc2)NC(=O)[C@H](Cc2ccc(-c3ccc(C(=O)O)cc3)cc2)NC(=O)[C@H]2C[C@@H](Cc3ccc(F)cc3)CN2C(=O)CNC(=O)[C@H](CCN)NC(=O)[C@H](CCC(N)=O)NC(=O)[C@H](Cc2cncnc2)NC(=O)C(C)(C)NC(=O)[C@H](Cc2c[nH]c3ccccc23)NC(=O)[C@H](CCC(=O)O)NC(=O)[C@](C)(CCCCN)NC1=O
B2: SEQ ID NO: 7 (peptide)
peptide: cyclo([Bip(4'-COOH)][4Pal][Phe(4-COOH)]G[Pro(cis-4-F)][Trp(βS-Me,4-F)][Aib]EW[Aib][Ala(pyrimidin-5-yl)]Q[Dap]G[dPro(4R-Bzl(4-F))])
SMILES: C[C@@H](c1c[nH]c2cccc(F)c12)[C@@H]1NC(=O)[C@@H]2C[C@H](F)CN2C(=O)CNC(=O)[C@H](Cc2ccc(C(=O)O)cc2)NC(=O)[C@H](Cc2ccncc2)NC(=O)[C@H](Cc2ccc(-c3ccc(C(=O)O)cc3)cc2)NC(=O)[C@H]2C[C@@H](Cc3ccc(F)cc3)CN2C(=O)CNC(=O)[C@H](CN)NC(=O)[C@H](CCC(N)=O)NC(=O)[C@H](Cc2cncnc2)NC(=O)C(C)(C)NC(=O)[C@H](Cc2c[nH]c3ccccc23)NC(=O)[C@H](CCC(=O)O)NC(=O)C(C)(C)NC1=O
B3: SEQ ID NO: 71 (peptide)
peptide: cyclo([Bip(4'-COOH)][4Pal][Phe(4-COOH)]G[Pro(cis-4-F)][Trp(βS-Me,4-F)][Aib]EW[Aib][Ala(pyrimidin-5-yl)]Q[Dab]G[dProc3CH2Pyrim])
SMILES: C[C@@H](c1c[nH]c2cccc(F)c12)[C@@H]1NC(=O)[C@@H]2C[C@H](F)CN2C(=O)CNC(=O)[C@H](Cc2ccc(C(=O)O)cc2)NC(=O)[C@H](Cc2ccncc2)NC(=O)[C@H](Cc2ccc(-c3ccc(C(=O)O)cc3)cc2)NC(=O)[C@H]2[C@@H](Cc3cncnc3)CCN2C(=O)CNC(=O)[C@H](CCN)NC(=O)[C@H](CCC(N)=O)NC(=O)[C@H](Cc2cncnc2)NC(=O)C(C)(C)NC(=O)[C@H](Cc2c[nH]c3ccccc23)NC(=O)[C@H](CCC(=O)O)NC(=O)C(C)(C)NC1=O
B4: SEQ ID NO: 76 (peptide)
peptide: cyclo([Bip(4'-COOH)][4Pal][Phe(4-COOH)]G[Pro(cis-4-F)][Trp(βS-Me,4-F)][Aib]EW[Aib][4Pal]QRG[dPro(4R-Bzl(4-F))])
SMILES: C[C@@H](c1c[nH]c2cccc(F)c12)[C@@H]1NC(=O)[C@@H]2C[C@H](F)CN2C(=O)CNC(=O)[C@H](Cc2ccc(C(=O)O)cc2)NC(=O)[C@H](Cc2ccncc2)NC(=O)[C@H](Cc2ccc(-c3ccc(C(=O)O)cc3)cc2)NC(=O)[C@H]2C[C@@H](Cc3ccc(F)cc3)CN2C(=O)CNC(=O)[C@H](CCCNC(=N)N)NC(=O)[C@H](CCC(N)=O)NC(=O)[C@H](Cc2ccncc2)NC(=O)C(C)(C)NC(=O)[C@H](Cc2c[nH]c3ccccc23)NC(=O)[C@H](CCC(=O)O)NC(=O)C(C)(C)NC1=O
B5: SEQ ID NO: 74 (peptide)
peptide: cyclo([TyrEtNAc][4Pal][Phe(4-COOH)][Pro(cis-4-F)][Trp(βS-Me,4-F)][Aib]EW[Aib]RQ[Dab]G[dPro(4R-Bzl(4-F))])
SMILES: CC(=O)NCCOc1ccc(C[C@@H]2NC(=O)[C@H]3C[C@@H](Cc4ccc(F)cc4)CN3C(=O)CNC(=O)[C@H](CCN)NC(=O)[C@H](CCC(N)=O)NC(=O)[C@H](CCCNC(=N)N)NC(=O)C(C)(C)NC(=O)[C@H](Cc3c[nH]c4ccccc34)NC(=O)[C@H](CCC(=O)O)NC(=O)C(C)(C)NC(=O)[C@H]([C@@H](C)c3c[nH]c4cccc(F)c34)NC(=O)[C@@H]3C[C@H](F)CN3C(=O)[C@H](Cc3ccc(C(=O)O)cc3)NC(=O)[C@H](Cc3ccncc3)NC2=O)cc1
B6: SEQ ID NO: 73 (peptide)
peptide: cyclo([Bip(4'-COOH)][4Pal][Phe(4-COOH)]G[Pro(cis-4-F)][Trp(βS-Me,4-F)][Aib]EW[Aib][2Pal]Q[Dab]G[dPro(4R-Bzl(4-F))])
SMILES: C[C@@H](c1c[nH]c2cccc(F)c12)[C@@H]1NC(=O)[C@@H]2C[C@H](F)CN2C(=O)CNC(=O)[C@H](Cc2ccc(C(=O)O)cc2)NC(=O)[C@H](Cc2ccncc2)NC(=O)[C@H](Cc2ccc(-c3ccc(C(=O)O)cc3)cc2)NC(=O)[C@H]2C[C@@H](Cc3ccc(F)cc3)CN2C(=O)CNC(=O)[C@H](CCN)NC(=O)[C@H](CCC(N)=O)NC(=O)[C@H](Cc2ccccn2)NC(=O)C(C)(C)NC(=O)[C@H](Cc2c[nH]c3ccccc23)NC(=O)[C@H](CCC(=O)O)NC(=O)C(C)(C)NC1=O
B7: SEQ ID NO: 72 (peptide)
peptide: cyclo([Bip(4'-COOH)][4Pal][Phe(4-COOH)]G[Pro(cis-4-F)][Trp(βS-Me,4-F)][Aib]EW[Aib][3Pal]Q[Dab]G[dPro(4R-Bzl(4-F))])
B8: SEQ ID NO: 77 (peptide)
peptide: cyclo([TyrEtNAc][4Pal][Phe(4-COOH)][Pro(cis-4-F)][Trp(βS-Me,4-F)][Aib]EW[Aib][Ala(pyrimidin-5-yl)]QSG[dProc3Bn])
SMILES: CC(=O)NCCOc1ccc(C[C@@H]2NC(=O)[C@H]3[C@@H](Cc4ccccc4)CCN3C(=O)CNC(=O)[C@H](CO)NC(=O)[C@H](CCC(N)=O)NC(=O)[C@H](Cc3cncnc3)NC(=O)C(C)(C)NC(=O)[C@H](Cc3c[nH]c4ccccc34)NC(=O)[C@H](CCC(=O)O)NC(=O)C(C)(C)NC(=O)[C@H]([C@@H](C)c3c[nH]c4cccc(F)c34)NC(=O)[C@@H]3C[C@H](F)CN3C(=O)[C@H](Cc3ccc(C(=O)O)cc3)NC(=O)[C@H](Cc3ccncc3)NC2=O)cc1
B9: SEQ ID NO: 68 (peptide)
peptide: cyclo([Phe(4-(trans-4-COOH-cHex))][4Pal][Phe(4-COOH)]G[Pro(cis-4-F)][Trp(βS-Me,4-F)][Aib]EW[3Aminoazetidine3carboxyl][Ala(pyrimidin-5-yl)]Q[Dab]G[dPro(4R-Bzl(4-F))])
SMILES: C[C@@H](c1c[nH]c2cccc(F)c12)[C@@H]1NC(=O)[C@@H]2C[C@H](F)CN2C(=O)CNC(=O)[C@H](Cc2ccc(C(=O)O)cc2)NC(=O)[C@H](Cc2ccncc2)NC(=O)[C@H](Cc2ccc([C@H]3CC[C@H](C(=O)O)CC3)cc2)NC(=O)[C@H]2C[C@@H](Cc3ccc(F)cc3)CN2C(=O)CNC(=O)[C@H](CCN)NC(=O)[C@H](CCC(N)=O)NC(=O)[C@H](Cc2cncnc2)NC(=O)C2(CNC2)NC(=O)[C@H](Cc2c[nH]c3ccccc23)NC(=O)[C@H](CCC(=O)O)NC(=O)C(C)(C)NC1=O
B10: SEQ ID NO: 75 (peptide)
peptide: cyclo([Bip(4'-COOH)][4Pal][Phe(4-COOH)]G[Pro(cis-4-F)][Trp(βS-Me,4-F)][Aib]EW[Aib][Ala(pyrimidin-5-yl)]QRG[dPro(4R-Bzl(4-F))])
SMILES: C[C@@H](c1c[nH]c2cccc(F)c12)[C@@H]1NC(=O)[C@@H]2C[C@H](F)CN2C(=O)CNC(=O)[C@H](Cc2ccc(C(=O)O)cc2)NC(=O)[C@H](Cc2ccncc2)NC(=O)[C@H](Cc2ccc(-c3ccc(C(=O)O)cc3)cc2)NC(=O)[C@H]2C[C@@H](Cc3ccc(F)cc3)CN2C(=O)CNC(=O)[C@H](CCCNC(=N)N)NC(=O)[C@H](CCC(N)=O)NC(=O)[C@H](Cc2cncnc2)NC(=O)C(C)(C)NC(=O)[C@H](Cc2c[nH]c3ccccc23)NC(=O)[C@H](CCC(=O)O)NC(=O)C(C)(C)NC1=O
B11: SEQ ID NO: 67 (peptide)
peptide: cyclo([Bip(4'-COOH)][4Pal][Phe(4-COOH)]G[Pro(cis-4-F)][Trp(βS-Me,4-F)][Aib]EW[αMeK][Ala(pyrimidin-5-yl)]Q[Dab]G[dPro(4R-Bzl(4-F))])
B12: SEQ ID NO: 69 (peptide)
peptide: cyclo([Phe(4-(cis-4-COOH-cHex))][4Pal][Phe(4-COOH)]G[Pro(cis-4-F)][Trp(βS-Me,4-F)][Aib]EW[3Aminoazetidine3carboxyl][Ala(pyrimidin-5-yl)]Q[Dab]G[dPro(4R-Bzl(4-F))])
SMILES: C[C@@H](c1c[nH]c2cccc(F)c12)[C@@H]1NC(=O)[C@@H]2C[C@H](F)CN2C(=O)CNC(=O)[C@H](Cc2ccc(C(=O)O)cc2)NC(=O)[C@H](Cc2ccncc2)NC(=O)[C@H](Cc2ccc([C@H]3CC[C@@H](C(=O)O)CC3)cc2)NC(=O)[C@H]2C[C@@H](Cc3ccc(F)cc3)CN2C(=O)CNC(=O)[C@H](CCN)NC(=O)[C@H](CCC(N)=O)NC(=O)[C@H](Cc2cncnc2)NC(=O)C2(CNC2)NC(=O)[C@H](Cc2c[nH]c3ccccc23)NC(=O)[C@H](CCC(=O)O)NC(=O)C(C)(C)NC1=O
B13: SEQ ID NO: 70 (peptide)
peptide: cyclo([TyrEtNAc][4Pal][Phe(4-COOH)][Pro(cis-4-F)][Trp(βS-Me,4-F)][Aib]EW[Aib][Ala(pyrimidin-5-yl)]Q[Dab]G[dProc3CH2Pyrim])
SMILES: CC(=O)NCCOc1ccc(C[C@@H]2NC(=O)[C@H]3[C@@H](Cc4cncnc4)CCN3C(=O)CNC(=O)[C@H](CCN)NC(=O)[C@H](CCC(N)=O)NC(=O)[C@H](Cc3cncnc3)NC(=O)C(C)(C)NC(=O)[C@H](Cc3c[nH]c4ccccc34)NC(=O)[C@H](CCC(=O)O)NC(=O)C(C)(C)NC(=O)[C@H]([C@@H](C)c3c[nH]c4cccc(F)c34)NC(=O)[C@@H]3C[C@H](F)CN3C(=O)[C@H](Cc3ccc(C(=O)O)cc3)NC(=O)[C@H](Cc3ccncc3)NC2=O)cc1

Target: Recombinant human IL-1β (BioLegend 579404) (human, UniProt P01584 117-269)
Assay: cell-based or functional assay

MRC5 IC50 | Binder
0.028 nM | B1
0.026 nM | B2
0.058 nM | B3
0.059 nM | B4
0.072 nM | B5
0.031 nM | B6
0.027 nM | B7
0.079 nM | B8
0.029 nM | B9
0.056 nM | B10
0.021 nM | B11
0.03 nM | B12
0.081 nM | B13
